T1: Abp1 SH3 (ABP1_YEAST), P15891
T1 chain: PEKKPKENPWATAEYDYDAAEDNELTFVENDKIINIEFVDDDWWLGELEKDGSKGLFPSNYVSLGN


Target: T1, Abp1 SH3 (ABP1_YEAST), P15891
Experiment: SPOT array

| Binder | normalised SPOT signal, Boehringer light units (BLU); mean over the file's lines of this peptide |
| --- | --- |
| KGFRFNLPPTDRP [YGR202C 91-103] | 166 |
| KAGGPRAPQGPRP [YJL008C 549-561] | 209 |
| IPILIKMSRSPPRP [YDR243C 233-246] | 2420 |
| ISRWVNFPWDAKP [YIL085C 295-307] | 172 |
| KEKKVTFDIEPYKP [YBR143C 103-116] | 63.6 |
| KDDKAMEPPNEKP [YDL193W 7-19] | 118 |
| ISGVYYSNWSPYKP [YDR371W 74-87] | 91.7 |
| ITSYAVSPYAQKP [YJL166W 24-36] | 90.7 |
| KGMENELPFMKRP [YIL077C 15-27] | 332 |
| IRPDGRLPHQFRP [YDL111C 21-33] | 1260 |
| INAYSNIPPQQRP [YCR033W 972-984] | 84.6 |
| KDVQPFIPKSLRP [YGR175C 289-301] | 2320 |
| KFMSAIKPANQKP [YAL024C 394-406] | 2680 |
| KDPANISMILPSKP [YBR260C 525-538] | 112 |
| ITELISGYMLPLRP [YJL212C 542-555] | 149 |
| ILVSLLIHSLPRKP [YGL104C 354-367] | 176 |
| IRGFKSKPGTAKP [YDR409W 265-277] | 434 |
| INQFGIVPLGPKP [YGR154C 339-351] | 133 |

| Binder | normalised SPOT signal, Boehringer light units (BLU); mean over the file's lines of this peptide |
| --- | --- |
| IPTRENTPSAFKP [YDL231C 441-453] | 204 |
| KDIPVKSDDTPAKP [YGL009C 527-540] | 75.1 |
| KFSSDNDPLQYRP [YBR033W 108-120] | 71.3 |
| ISMIPRYPVTSRP [YDL056W 329-341] | 2470 |
| ISSQIAQPYEDRP [YDR280W 60-72] | 43.3 |
| ISPVIIPLGNPKRP [YGR177C 149-162] | 90.9 |
| KEYTRFNQIFPKKP [YDR182W 159-172] | 54 |
| KDPKSFPPPPLKP [YBR108W 81-93] | 1320 |
| KARHVLYPKGVKP [YDR463W 278-290] | 174 |
| IPEYILDPNAQKP [YAL058W 299-311] | 50 |
| INLANEQPVLEKP [YDR227W 195-207] | 105 |
| IRRYLRVPNELKP [YJL004C 4-16] | 105 |
| KSEPELYPNGIKP [YBR058C 403-415] | 13.7 |
| IYDVIEVVPEPGKP [YDR301W 1056-1069] | 80.4 |
| ILVESSSPLSSKP [YGL248W 276-288] | 52.3 |
| INLAVNMPPGQRP [YEL055C 74-86] | 163 |
| IPPPQTLPNGQKP [YGL222C 52-64] | 57.2 |

The remaining lines, values ahead:

| normalised SPOT signal, Boehringer light units (BLU); mean over the file's lines of this peptide | Binder |
| --- | --- |
| 116 | KELSRLTYYGPEKP [YLR305C 1008-1021] |
| 378 | KELKWADPRSFKP [YOR168W 156-168] |
| 822 | IQESMKHPKHFRP [YKL146W 503-515] |
| 87 | IVFKNVSFTYPTRP [YLR188W 432-445] |
| 73 | ILKQDLIPSIGKP [YNR027W 300-312] |
| 898 | KGIIMDAKFHPFKP [YMR049C 639-652] |
| 71.8 | KDSPSFLPGQQRP [YNL167C 92-104] |
| 9.5 | INPLGITPLGPKP [YKR076W 353-365] |
| 273 | KGVRNIMIPFPNRP [YOR093C 1313-1326] |
| 79.8 | IPSENNIFFIPQKP [YPL147W 673-686] |
| 2180 | IPLLKEKPNALKP [YOR001W 149-161] |
| 1350 | ILTFSTKKSKPIRP [YMR259C 332-345] |
| 91.3 | ISNLGGKSIDPHKP [YNL212W 461-474] |
| 118 | IYLTKLFMEWPFKP [YMR228W 312-325] |
| 43.2 | ITKILRIIGFPSRP [YNL247W 569-582] |
| 1030 | ISKWTIMPHPNRP [YOL008W 136-148] |
| 114 | KGPDVEFLMIPFRP [YOR188W 88-101] |
| 94.1 | KETVTKQPTEEKP [YNL110C 11-23] |
| 153 | IMSPVGNPEGPEKP [YKL060C 311-324] |
| 0 | ILYKSNDVELPGKP [YMR094W 38-51] |
| 155 | IPGLGYLENNPGRP [YOL146W 66-79] |
| 211 | KAEMKAGTTAPPKP [YLR234W 517-530] |
| 21 | IPSGKVDPVTKKP [YJR024C 135-147] |
| 95.3 | ISLDSPIPENIKP [YNL102W 567-579] |

— article PMC314469, “Protein Interaction Networks by Proteome Peptide Scanning” (PLoS Biology, 2004)
